Experimental data published in patent US20230049152A1 (Genentech, published 2023).

T1: human CCR3 (human, UniProt P51677 1-355)
T1 construct: whole, on cells; transiently expressed on HEK293 cells
T1 sequence (looked up): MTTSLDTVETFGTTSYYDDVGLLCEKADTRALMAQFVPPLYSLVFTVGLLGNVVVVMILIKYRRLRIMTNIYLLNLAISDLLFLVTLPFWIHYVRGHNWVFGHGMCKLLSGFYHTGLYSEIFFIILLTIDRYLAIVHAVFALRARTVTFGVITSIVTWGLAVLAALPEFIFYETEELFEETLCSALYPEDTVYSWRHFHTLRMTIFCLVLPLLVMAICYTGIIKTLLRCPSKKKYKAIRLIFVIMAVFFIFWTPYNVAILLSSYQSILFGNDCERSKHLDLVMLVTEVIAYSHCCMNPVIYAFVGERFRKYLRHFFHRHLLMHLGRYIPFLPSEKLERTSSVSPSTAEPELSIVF

T2: human ACKR4 (human, UniProt Q9NPB9 1-350)
T2 construct: whole, on cells; transiently expressed on HEK293 cells
T2 sequence (looked up): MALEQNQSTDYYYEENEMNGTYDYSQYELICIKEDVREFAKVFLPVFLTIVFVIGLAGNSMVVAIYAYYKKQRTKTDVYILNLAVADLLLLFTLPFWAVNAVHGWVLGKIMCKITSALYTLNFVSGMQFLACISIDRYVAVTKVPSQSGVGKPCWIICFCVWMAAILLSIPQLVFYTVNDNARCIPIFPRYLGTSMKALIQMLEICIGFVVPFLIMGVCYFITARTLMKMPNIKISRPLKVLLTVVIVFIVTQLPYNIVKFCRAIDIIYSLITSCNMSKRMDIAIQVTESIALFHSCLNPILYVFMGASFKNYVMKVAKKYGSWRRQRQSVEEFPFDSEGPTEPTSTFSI


Tests used:
human CCR3 = biological target: T1, human CCR3; assay: flow cytometry, HEK293 with N-term FLAG-tagged human CCR3
From the text: FIGS. 4A-4F depicts the binding data of hu.Ab3.H1L1 (FIG. 4A), hu.Ab4.H1L1 (FIG. 4B), and hu.Ab5.H1L1 (FIG. 4C), as well as the commercial anti-CCR8 mAbs murine anti-human CCR8 mAb 433H (BD Biosciences) (FIG. 4D), and murine anti-human CCR8 mAb L263G8 (Biolegend) (FIG. 4E), and the humanized anti-human Yoshida anti-CCR8 mAb (FIG. 4F), to HEK293 cells that were transiently transfected with N-term FLAG-tagged plasmids encoding for human GPCRs (CCR2, CCR3, CCR4, CCR5, CCR8, CXCR4, ACKR2, and ACKR4), hCCR8 constructs, or with a mock construct using transIT X2 (reagent:DNA=3:1).
To confirm the selectivity to CCR8, the binding of hu.Ab3.H1L1, hu.Ab4.H1L1, and hu.Ab5.H1L1, as well as the Yoshida humanized anti-human CCR8, murine anti-human CCR8 mAb L263G8 (Biolegend, Commercial Ab) and murine anti-human CCR8 mAb 433H (BD Biosciences, Commercial Ab), were characterized by flow cytometry on HEK293 cells that were transiently transfected with plasmids encoding for FLAG-tagged other related human GPCRs (CCR2-5, CXCR4, ACKR2, and ACKR4). Cell surface expression of each GPCR was confirmed by staining with an anti-FLAG antibody control. […]

human ACKR4 = biological target: T2, human ACKR4; assay: flow cytometry, HEK293 with N-term FLAG-tagged human ACKR4, procedure of FIG. 4
From the text: (§1) To confirm the selectivity to CCR8, the binding of hu.Ab3.H1L1, hu.Ab4.H1L1, and hu.Ab5.H1L1, as well as the Yoshida humanized anti-human CCR8, murine anti-human CCR8 mAb L263G8 (Biolegend, Commercial Ab) and murine anti-human CCR8 mAb 433H (BD Biosciences, Commercial Ab), were characterized by flow cytometry on HEK293 cells that were transiently transfected with plasmids encoding for FLAG-tagged other related human GPCRs (CCR2-5, CXCR4, ACKR2, and ACKR4). Cell surface expression of each GPCR was confirmed by staining with an anti-FLAG antibody control. In particular, HEK293 cells were transfected with N-term FLAG-tagged human CCR2, CCR3, CCR4, CCR5, CXCR4, ACKR2, ACKR4, hCCR8 constructs, or with a Mock construct using transIT X2 (reagent:DNA=3:1) for 24 hours, and surface stained with various anti-hCCR8 monoclonal antibodies at 5 ug/ml, or rabbit anti-Flag pAb (Sigma) followed by AF647-anti-hIgG or AF647-anti-RbIgG respectively. Antibodies hu.Ab4.H1L1, and hu.Ab5.H1L1, only stained the hCCR8-containing cells, confirming their specificity to hCCR8. […] Thus, the CCR8 selective hu.Ab4.H1L1 and hu.Ab5.H1L1 antibodies with the best ADCC activities were carried forward.
(§2) To reconfirm that the Ab4 and Ab5 variants remained selective to CCR8 compared to the corresponding HIL1 variants, binding was analyzed by flow cytometry following the procedure as described for FIG. 4A and FIG. 4B. […]

human CXCR4 = biological target: T3, human CXCR4 (human, UniProt P61073 1-352); assay: flow cytometry, HEK293 with N-term FLAG-tagged human CXCR4, procedure of FIG. 4
T3 construct: whole, on cells; transiently expressed on HEK293 cells
T3 sequence (P61073 whole entry): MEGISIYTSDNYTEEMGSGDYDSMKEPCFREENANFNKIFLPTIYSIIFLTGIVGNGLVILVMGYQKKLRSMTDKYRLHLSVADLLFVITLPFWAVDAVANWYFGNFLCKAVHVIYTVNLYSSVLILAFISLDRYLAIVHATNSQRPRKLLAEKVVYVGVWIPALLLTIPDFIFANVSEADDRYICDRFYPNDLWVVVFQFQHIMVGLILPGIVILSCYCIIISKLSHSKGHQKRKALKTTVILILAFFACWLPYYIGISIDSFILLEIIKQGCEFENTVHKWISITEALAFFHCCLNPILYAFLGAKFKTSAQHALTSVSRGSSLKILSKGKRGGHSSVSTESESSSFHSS
From the text: as §1, §2

cyno CCR8 = biological target: T4, cyno CCR8 (cynomolgus monkey, UniProt O97665 1-356 (rhesus entry)); assay: radioligand competition on CHO cells stably expressing cyno CCR8: fixed 125I-anti-CCR8 against serially diluted unlabelled antibody
T4 construct: also called cynomolgus monkey CCR8
T4 sequence (O97665 other isoform, or with tags, fused parts or gaps): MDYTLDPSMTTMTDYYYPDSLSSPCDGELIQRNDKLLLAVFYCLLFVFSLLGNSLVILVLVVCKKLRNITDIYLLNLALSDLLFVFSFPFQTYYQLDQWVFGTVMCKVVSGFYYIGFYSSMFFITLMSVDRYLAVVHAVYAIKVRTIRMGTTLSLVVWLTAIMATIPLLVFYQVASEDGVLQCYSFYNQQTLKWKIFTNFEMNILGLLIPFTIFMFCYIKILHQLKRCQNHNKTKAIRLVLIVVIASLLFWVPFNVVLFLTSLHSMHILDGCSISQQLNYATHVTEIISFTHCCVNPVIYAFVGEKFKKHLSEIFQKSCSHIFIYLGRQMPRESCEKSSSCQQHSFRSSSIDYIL
Method: Cell-based affinity measurements were performed using radiolabeled IgGs and CHO cell lines stably expressing human or cyno CCR8 for hu.Ab5.H13L1 and hu.Ab4.H12L3.
Briefly, stable CHO cells expressing human or cyno CCR8 were seeded in cold binding buffer (Opti-MEM+2% FBS+50 mM HEPES, pH 7.2+0.1% Sodium Azide) at 50,000 cells per well. A fixed concentration of ¹²⁵I-anti-CCR8 radiolabeled using the NEX244 Iodogen method (Perkin Elmer) was mixed with serially diluted anti-CCR8 antibodies starting at 20 nM or 50 nM. The antibody mixture was added to the cells and incubated at room temperature for 12 hours under gentle agitation. The cells and antibodies were then transferred to Millipore multiscreen filter plates. The filter plates were washed 4 times with 250 μL of cold binding buffer and dried for at least 30 minutes and the filters were punched into 5 mL polystyrene tubes. The radioactivity was measured using a Perkin Elmer Wallac Wizard 2470 Gamma Counter set at 1 count per minute with 0.8 counting efficiency. The data were fitted using the heterologous one site-fit Ki competitive binding model in GraphPad Prism.

human CCR2 = biological target: T5, human CCR2 (human, UniProt P41597 1-374); assay: flow cytometry, HEK293 with N-term FLAG-tagged human CCR2, procedure of FIG. 4
T5 construct: whole, on cells; transiently expressed on HEK293 cells
T5 sequence (P41597 whole entry): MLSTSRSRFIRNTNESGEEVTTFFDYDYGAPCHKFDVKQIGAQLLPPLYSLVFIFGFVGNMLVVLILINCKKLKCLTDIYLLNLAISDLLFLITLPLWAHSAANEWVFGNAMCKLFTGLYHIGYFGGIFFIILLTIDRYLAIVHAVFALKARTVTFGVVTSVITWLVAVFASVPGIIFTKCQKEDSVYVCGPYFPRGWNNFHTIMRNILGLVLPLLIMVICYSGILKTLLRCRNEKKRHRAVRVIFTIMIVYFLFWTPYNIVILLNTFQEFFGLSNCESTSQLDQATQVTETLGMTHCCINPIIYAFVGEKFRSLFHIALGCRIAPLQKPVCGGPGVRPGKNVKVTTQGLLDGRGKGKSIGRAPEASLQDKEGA
From the text: as §1, §2

Binder | binding result (human CCR3) | binding result (human ACKR4) | binding result (human CXCR4) | IC50 (read off the curve) (cyno CCR8) [pM] | binding result (human CCR2)
hu.Ab5.H1L1 (antibody, human IgG1, kappa) heavy: not shown light: DIQVTQSPSSLSASVGDRVTITCQASENIANALAWYQQKPGKPPKFLIYGASNLASGVPSRFSGSGSGTDFTFTISSLQPEDIATYYCQQAYYGNSFVEGTFGGGTKVEIKRTVAAPSVFIFPPSDEQLKSGTASVVCLLNNFYPREAKVQWKVDNALQSGNSQESVTEQDSKDSTYSLSSTLTLSKADYEKHKVYACEVTHQGLSSPVTKSFNRGEC | no binding (tested: 5 ug/ml) |  |  |  | 
hu.Ab4.H1L1 (antibody, human IgG1, kappa, also called hu.Ab4.H1Ll) heavy: not shown light: DYQMTQSPSSLSASVGDRVTITCQASQSISSYLSWYQQKPGKRPKLLIYKASTLASGVPSRFSGSGSGTDFTLTISSLQPEDFATYYCQQGYTSSNIDNIFGGGTKVEIKRTVAAPSVFIFPPSDEQLKSGTASVVCLLNNFYPREAKVQWKVDNALQSGNSQESVTEQDSKDSTYSLSSTLTLSKADYEKHKVYACEVTHQGLSSPVTKSFNRGEC | no binding (tested: 5 ug/ml) |  |  |  | 

More lines, now with the values ahead:

binding result (human CCR3) | binding result (human ACKR4) | binding result (human CXCR4) | IC50 (read off the curve) (cyno CCR8) [pM] | binding result (human CCR2) | Binder
 | no binding (tested: 5 ug/ml) | no binding (tested: 5 ug/ml) | ~50 | no binding (tested: 5 ug/ml) | hu.Ab5.H13L1 (antibody, human IgG1, kappa, fucosylated human IgG1; also called Ab5 variant) heavy: not shown light: DIQVTQSPSSLSASVGDRVTITCQASENIANALAWYQQKPGKPPKFLIYGASNLASGVPSRFSGSGSGTDFTFTISSLQPEDIATYYCQQAYYGNSFVEGTFGGGTKVEIKRTVAAPSVFIFPPSDEQLKSGTASVVCLLNNFYPREAKVQWKVDNALQSGNSQESVTEQDSKDSTYSLSSTLTLSKADYEKHKVYACEVTHQGLSSPVTKSFNRGEC
 | no binding (tested: 5 ug/ml) | no binding (tested: 5 ug/ml) | ~100 | no binding (tested: 5 ug/ml) | hu.Ab4.H12L3 (antibody, human IgG1, kappa, fucosylated human IgG1; also called huCCR8-Ab4.H12L3.hIgG1; Ab4 variant) heavy: not shown light: DYQMTQSPSSLSASVGDRVTITCQASQSISSYLSWYQQKPGKAPKLLIYKASTLASGVPSRFSGSGSGTDFTLTISSLQPEDFATYYCQQGYTSSNIDNIFGGGTKVEIKRTVAAPSVFIFPPSDEQLKSGTASVVCLLNNFYPREAKVQWKVDNALQSGNSQESVTEQDSKDSTYSLSSTLTLSKADYEKHKVYACEVTHQGLSSPVTKSFNRGEC
